“Also recorded” adds a separate entry of the source.
Tests used:
[1] = In vivo pharmacokinetics profile after subcutaneous administration (GLP-1-Fc ELISA and GLP-2-Fc ELISA); set-up: species or system male SD (Sprague Dawley) rats; details: rat, 1 mg/kg SC
Protocol: First, each protein was administered to 3 male SD (Sprague Dawley) rats per group at a dose of 1 mg/kg by subcutaneous (SC) route. Before injection and after 0.5, 1, 5, 10, 24, 48, 72, 120, and 168 hours after the injection, blood was collected and stored at room temperature for 30 minutes to aggregate. After centrifuging the aggregated blood at 3,000 rpm for 10 minutes, serum of each sample was collected and stored in a cryogenic freezer. Analyses were performed by an assay designed to specifically detect the GLP-1 site and Fc in the administered protein (GLP-1-Fc ELISA) and an assay designed to specifically detect the GLP-2 site and Fc in the administered protein (GLP-2-Fc ELISA). Specifically, a method of loading a biological sample on a plate coated with an antibody that binds to mouse-derived human immunoglobulin G4 (IgG4) to detect the target protein using a biotinylated anti-GLP-1 antibody (GLP-1-Fc ELISA), and a method of loading a biological sample on a plate coated with a monoclonal antibody that specifically reacts with GLP-2, to detect the target protein using a secondary antibody having HRP conjugated to mouse-derived human immunoglobulin G4 (IgG4) (GLP-2-Fc ELISA) were used. The obtained and prepared serum samples were loaded with appropriate dilutions to be analyzed at a position on a straight line of the standard curve.

B6 normal mice [2] = assay: Small intestine weight and body weight (GLP-1-Fc homodimer, GLP-2-Fc homodimer, MG12-1, MG12-4); format: in vivo; details: SC twice a week, 4 doses; homodimers 10 nmol/kg, MG12 20 nmol/kg
Excerpt: In addition, the present inventors conducted the same experiment as above while only varying the administered substance, in order to confirm whether the bispecific fusion proteins (MG12-1 and MG12-4) designed in a form other than MG12-5 also increase the small intestine weight and energy absorption rate of experimental animals. Specifically, PBS, 10 nmol/kg GLP-1-Fc homodimer, 10 nmol/kg GLP-2-Fc homodimer, 20 nmol/kg MG12-1, and 20 nmol/kg MG12-4 were subcutaneously administered. The drug was administered twice a week for a total of 4 times for 2 weeks. After 4 doses, the body weight was measured before autopsy, and the small intestine was excised after the autopsy and weighed. After the autopsy, the entire gastrointestinal tract of the mouse was separated, the mesentery and the pancreas were excised, and the area where the ileum and the cecum meet was cut to separate the small intestine and the large intestine. The separated small intestine was perfused and washed with 10% neutral formalin to remove the contents, and was weighed after removing the neutral formalin with an absorbent towel.

B6 normal mice [3] = assay: Fluorescence spectrometry tissue distribution of Cy5.5-labelled substances; format: in vivo
Protocol: Next, the present inventors performed an experiment in B6 normal mice in order to observe the distribution in each tissue and organ according to the administration of a bispecific fusion protein according to an embodiment of the present invention. Cy5.5 was used as a fluorophore for tracking the distribution after administration of each substance. Buffer exchange was performed for each substance to be administered, MG12-1, MG12-4, and GLP-1Fc homodimer with boric acid buffer (pH 8.5), and with reference to the protocol of the Cy5.5 labeling kit (GE, #PA15605) were allowed to react with an appropriate amount of Cy5.5 overnight under refrigeration conditions. Unreacted Cy5.5 in the reaction-completed substance was removed through the PBS substitution process, and whether Cy5.5 was reacted well was confirmed through the final SDS-PAGE. Each administered substance was diluted with 10% DMSO/PBS to have the same fluorescence intensity using an ELISA plate reader capable of measuring fluorescence intensity before being administered.

Balb/c-nude mice = assay: PET-MRI tissue distribution of Zr89-labelled proteins; format: in vivo; details: Zr89 label, SC
Excerpt: Next, the present inventors performed an experiment in Balb/c-nude mice in order to observe the distribution in each tissue organ following the administration of a substance. Zr^89 was used as a radiotracer for tracking the distribution after administration of each substance. Each substance to be administered was labeled with Zr^89 as a reaction condition and a chelator selected through a preliminary test. The labeled Zr^89-protein was purified using a PD-10 column, and Zr^89 labeling efficiency and purity were confirmed using Radio TLC and SEC-HPLC. The labeling efficiency of the Zr^89-protein of 90% or more and the purity of 80% or more were determined to be appropriate, and the labeled protein was administered subcutaneously at 0.2 mCi/0.2 cc. Each administration substance was administered to three animals and static images for 20 minutes were obtained using PET-MRI at 1 hour, 6 hours, 24 hours, 48 hours, and 168 hours after injection. Through image analysis, the distribution of drugs as a function of time in the liver, small intestine, and large intestine was expressed as SUV (Standardized Uptake Value) and comparatively analyzed.

GLP-1 receptor = GLP-1 receptor (Homo sapiens, UniProt P43220); details: GLP-1 activity
Protocol: After culturing the cells in a 37° C., 5% CO2 incubator for about 16 hours, the cells were treated with 20 μL/well of a test solution of various concentrations to be evaluated and allowed to react in a 37° C., 5% CO2 incubator for 5 hours. After the reaction was complete, the plate was treated with Bright-Glo™ assay reagent at 100 μL/well, and then was allowed react at room temperature for 2 minutes. After the reaction was completed, the plate was inserted into a Luminometer and the degree of bioluminescence was measured.

[4] = 24 hours after administration, Cy5.5 label

GLP-1 receptor, sequence (P43220 24-463, species assumed): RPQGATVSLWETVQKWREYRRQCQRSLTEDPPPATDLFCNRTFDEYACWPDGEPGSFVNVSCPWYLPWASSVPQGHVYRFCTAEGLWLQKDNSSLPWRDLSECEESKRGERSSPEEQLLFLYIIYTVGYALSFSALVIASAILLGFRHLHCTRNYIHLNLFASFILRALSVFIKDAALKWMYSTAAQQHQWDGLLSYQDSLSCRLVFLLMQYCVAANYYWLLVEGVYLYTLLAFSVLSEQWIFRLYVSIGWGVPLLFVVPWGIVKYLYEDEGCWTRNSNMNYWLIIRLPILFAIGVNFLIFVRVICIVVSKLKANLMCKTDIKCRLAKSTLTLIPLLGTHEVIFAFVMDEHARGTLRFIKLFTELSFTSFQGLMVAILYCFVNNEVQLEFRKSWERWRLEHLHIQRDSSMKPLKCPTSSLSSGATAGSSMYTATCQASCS

B1: MG12-1: Knob/hole Fc heterodimer: GLP-1 (SEQ 1), glycan linker, first fusion protein SEQ 24; GLP-2 (SEQ 17), second fusion protein SEQ 32 (protein)
chain 1: HGEGTFTSDVSSYLEGQAAKEFIAWLVKGRGGGGGSGGGGSGGGGSAKNTTAPATTRNTTRGGEEKKKEKEKEEQEERTHTCPPCPSHTQPLGVFLFPPKPKDTLMISRTPEVTCVVVDVSQEDPEVQFNWYVDGVEVHNAKTKPREEQFNSTYRVVSVLTVLHQDWLNGKEYKCKVSNKGLPSSIEKTISKAKGQPREPQVYTLPPCQEEMTKNQVSLWCLVKGFYPSDIAVEWESNGQPENNYKTTPPVLDSDGSFFLYSRLTVDKSRWQEGNVFSCSVMHEALHNHYTQKSLSLSLGK
chain 2: HGDGSFSDEMNTILDNLAARDFINWLIQTKITDGGGGSGGGGSGGGGSEKEKEEQEERTHTCPPCPSHTQPLGVFLFPPKPKDTLMISRTPEVTCVVVDVSQEDPEVQFNWYVDGVEVHNAKTKPREEQFNSTYRVVSVLTVLHQDWLNGKEYKCKVSNKGLPSSIEKTISKAKGQPREPQVCTLPPSQEEMTKNQVSLSCAVKGFYPSDIAVEWESNGQPENNYKTTPPVLDSDGSFFLVSRLTVDKSRWQEGNVFSCSVMHEALHNHYTQKSLSLSLGK
What does the source list for B1?
AUClast ([1]; GLP-1-Fc ELISA (Table 5)): 13919.8 ± 824.9 ng·h/mL; Cmax ([1]; GLP-1-Fc ELISA (Table 5)): 442.2 ± 20.8 ng/mL; Half-life ([1]; GLP-1-Fc ELISA (Table 5)): 16.5 ± 6.3 h; Tmax ([1]; GLP-1-Fc ELISA (Table 5)): 10 h; AUClast ([1]; GLP-2-Fc ELISA (Table 6)): 78639.0 ± 11205.3 ng·h/mL; Cmax ([1]; GLP-2-Fc ELISA (Table 6)): 1136.7 ± 261.0 ng/mL; Half-life ([1]; GLP-2-Fc ELISA (Table 6)): 43.7 ± 1.8 h; Tmax ([1]; GLP-2-Fc ELISA (Table 6)): 24.0 ± 0.0 h; small intestine weight (B6 normal mice [2]): greater increase in small intestine weight than the GLP-2-Fc homodimer administered group; also recorded: superior effect of increasing small intestine weight; weight change before autopsy (body weight) (B6 normal mice [2]): numerical increase in body weight; Average fluorescence intensity, Brain (B6 normal mice [3]; [4]): 489; Average fluorescence intensity, Large intestine (B6 normal mice [3]; [4]): 3702; Average fluorescence intensity, Small intestine (B6 normal mice [3]; [4]): 7320; distribution in the small intestine and the large intestine (B6 normal mice [3]; compared to GLP-1-Fc homodimer): larger; distribution to the liver (SUV) (Balb/c-nude mice): reduced or showed no difference compared to Fc; distribution to the small intestine and large intestine (SUV) (Balb/c-nude mice): significantly high compared to that of GLP-1-Fc homodimer and GLP-2-Fc homodimer; activity reduced due to glycosylation (GLP-1 receptor): about 11 times

Source: patent US20240368239A1, “Novel bispecific protein and use thereof” (SL METAGEN, priority 2020, published 2024)
